From paper doi:10.1101/2022.10.10.511578 (bioRxiv, 2022) come the findings set out here.

No end group written: not given here. Some results are limits rather than exact numbers.

The target of one test is T1, arrestin2^1-393 (human).
T1 chain: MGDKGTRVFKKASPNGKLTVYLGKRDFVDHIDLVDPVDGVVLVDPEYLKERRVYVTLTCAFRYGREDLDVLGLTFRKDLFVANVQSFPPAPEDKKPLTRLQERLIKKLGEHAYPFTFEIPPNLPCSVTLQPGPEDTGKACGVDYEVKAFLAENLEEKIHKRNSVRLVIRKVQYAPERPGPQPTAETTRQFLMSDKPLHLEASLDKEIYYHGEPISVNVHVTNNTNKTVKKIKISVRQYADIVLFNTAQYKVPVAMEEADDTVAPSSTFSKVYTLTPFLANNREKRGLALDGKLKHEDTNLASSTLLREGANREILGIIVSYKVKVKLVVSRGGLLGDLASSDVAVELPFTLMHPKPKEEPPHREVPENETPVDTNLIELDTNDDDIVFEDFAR
The test is described as follows: NMR titration.

In a further test the target is T2, arrestin2^1-359 (human).
T2 chain: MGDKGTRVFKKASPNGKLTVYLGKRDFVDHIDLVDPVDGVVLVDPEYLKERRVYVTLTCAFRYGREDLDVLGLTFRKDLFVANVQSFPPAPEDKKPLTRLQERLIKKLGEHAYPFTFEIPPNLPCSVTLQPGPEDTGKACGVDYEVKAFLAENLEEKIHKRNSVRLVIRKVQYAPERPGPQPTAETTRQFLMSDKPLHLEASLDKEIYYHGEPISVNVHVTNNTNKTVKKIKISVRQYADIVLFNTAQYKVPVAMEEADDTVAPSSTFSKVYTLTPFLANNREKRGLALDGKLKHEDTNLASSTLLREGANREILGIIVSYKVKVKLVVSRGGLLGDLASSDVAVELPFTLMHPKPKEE
The test is described as follows: crystal structure.

Test [1] concerns the target T3, arrestin2^1-418 (C150L, C242V, C251V, C269S) (human).
T3 chain: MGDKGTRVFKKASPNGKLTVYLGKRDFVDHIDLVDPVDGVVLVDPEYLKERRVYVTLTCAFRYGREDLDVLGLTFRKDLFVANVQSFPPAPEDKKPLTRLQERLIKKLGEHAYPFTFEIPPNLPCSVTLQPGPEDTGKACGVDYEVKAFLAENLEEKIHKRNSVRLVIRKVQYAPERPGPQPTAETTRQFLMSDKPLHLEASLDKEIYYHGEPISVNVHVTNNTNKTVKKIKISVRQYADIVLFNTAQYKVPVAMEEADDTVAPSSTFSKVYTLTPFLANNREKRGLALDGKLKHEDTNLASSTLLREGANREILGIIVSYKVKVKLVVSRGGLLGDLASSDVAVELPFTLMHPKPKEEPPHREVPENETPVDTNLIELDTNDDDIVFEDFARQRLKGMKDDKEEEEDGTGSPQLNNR
The test is described as follows: SEC. In general terms: Size exclusion chromatography separates by hydrodynamic size, large species first.

One may read the Kd as the free concentration of one partner at which half of the binding sites on the other are occupied at equilibrium, for simple one-to-one binding. Higher therefore signals a looser complex. APERASSVYTRSTGEQEISVGL (also: three-fold phosphorylated, sites not given here) [CCR5 3P1 phosphopeptide] had a Kd in the test with arrestin2^1-393 of more than 100 µM.

B1: CCR5 5P2 phosphopeptide (peptide)
peptide: APERASSVYTRSTGEQEISVGL
modifications: not fully specified; five-fold phosphorylated; comprising pT343; whole pattern in Figure 1C
Molecule B1 came in with a dissociation constant Kd with arrestin2^1-393 of 54 ± 6 µM.

APERASSVYTRSTGEQEISVGL (also: five-fold phosphorylated, lacking pT343, sites not given here) [CCR5 5P1 phosphopeptide] returned a Kd with arrestin2^1-393 of 147 ± 7 µM. Against the preceding molecule, the Kd is about 2.7-fold higher.

In the case of APERASSVYTRSTGEQEISVGL (also: phosphopeptide (4P), sites not given here) [CCR5 4P phosphopeptide], the binding result with arrestin2^1-359 was “binds”. This molecule gave a Kd in the test with arrestin2^1-393 of more than 100 µM.

Take APERASSVYTRSTGEQEISVGL (also: phosphopeptide (3P2), sites not given here) [CCR5 3P2 phosphopeptide]: the binding result in test [1] is on record as “binds”. In the test with arrestin2^1-393, the Kd is more than 100 µM and the “fold lower affinity (than 6P or V2Rpp)” value is more than 4 fold.

APERASSVYTRSTGEQEISVGL (also: phosphopeptide (6P), sites not given here) [CCR5 6P phosphopeptide]: the binding result (in test [1]; with arrestin2^1-359) was “binds” in each case. Also, the Kd with arrestin2^1-393 came out at 45 ± 6 µM.
